Experimental data reported in publication PMC7319273.

What was measured:
[1] = target: SARS-CoV-2 Spike protein extracellular domain (S-ECD), as used in ELISA and BLI (SARS-CoV-2) (UniProt P0DTC2)
[2] = target: SARS-CoV-2 Spike protein extracellular domain (S-ECD), as used in ELISA and BLI (SARS-CoV-2) (UniProt P0DTC2); test: BLI

4A8 (human monoclonal antibody), sequence (VH): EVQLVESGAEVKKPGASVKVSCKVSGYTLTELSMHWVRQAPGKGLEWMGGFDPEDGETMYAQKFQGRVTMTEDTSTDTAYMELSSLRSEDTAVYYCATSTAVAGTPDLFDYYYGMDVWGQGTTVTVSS
4A8 (human monoclonal antibody), sequence (VL): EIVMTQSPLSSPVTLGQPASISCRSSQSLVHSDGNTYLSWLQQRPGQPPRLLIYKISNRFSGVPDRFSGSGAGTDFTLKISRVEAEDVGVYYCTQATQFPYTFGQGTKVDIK

4A8 (human monoclonal antibody)
neutralization of authentic SARS-CoV-2 in Vero-E6 cells, EC50 [1]: 0.61 µg/mL
Kd [2]: < 2.14 nM
